Laboratory results taken from the supplement of paper PMC11908140.

B1: library; numbered along this chain (parent)
chain: MRKPRAAVGSGHRKQAASQEGRQKHAKNNSQAKPSACDGLARQPEEVVLQASVSSYHLFRDVAEVTAFRGSLLSWYDQEKRDLPWRRRAEDEMDLDRRAYAVWVSEVMLQQTQVATVINYYTGWMQKWPTLQDLASASLEEVNQLWAGLGYYSRGRRLQEGARKVVEELGGHMPRTAETLQQLLPGVGRYTAGAIASIAFGQATGVVDGNVARVLCRVRAIGADPSSTLVSQQLWGLAQQLVDPARPGDFNQAAMELGATVCTPQRPLCSQCPVESLCRARQRVEQEQLLASGSLSGSPDVEECAPNTGQCHLCLPPSEPWDQTLGVVNFPRKASRKPPREESSATCVLEQPGALGAQILLVQRPNSGLLAGLWEFPSVTWEPSEQLQRKALLQELQRWAGPLPATHLRHLGEVVHTFSHIKLTYQVYGLALEGQTPVTTVPPGARWLTQEEFHTAAVSTAMKKVFRVYQGQQPGTCMGSKRSQVSSPCSRKKPRMGQQVLDNFFRSHISTDAHSLNSAAQ

Variants of: B1
Experiment: 8OG:A repair function score (normalized; synonymous = 0, nonsense = -1) (normalized log-likelihood score); higher = more repair activity (WT-like)
Conditions: with 8OG:A DNA repair reporter (GFP) in HEK-293 MUTYH KO cells
In short: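 Per-tile Rosace fitness scores were converted to a normalized repair function score anchored on synonymous and nonsense distributions. That scale puts synonymous medians at 0 and nonsense medians at -1. Variants with starting counts under 300 counts per million were discarded. Input came from sorting viable mCherry+ MUTYH knockout HEK-293 cells, carrying lentiviral MUTYH cDNA NNN codon-scan libraries in 10 pg/ml doxycycline and an 8OG:A GFP repair reporter, into GFP+ and GFP− bins at 72 h, three replicates per tile, followed by tile amplicon sequencing.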
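Note: cells sorted at 72 h after reporter transfection.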

Variant	8OG:A repair function score
L134I	-0.101
Q435T	0.028
A391Q	-0.0188
E92I	-0.0645
I195Q	-1.01
T424F	-0.0268
S378E	-0.297
S136D	0.029
I359P	-1.08
Y56W	0.00662
L184K	-0.925
R281A	-0.0465
V230F	-0.517
V414N	-0.679
R42G	0.0112
G434V	-0.0502
Y425D	-0.805
V362G	-0.901
K164Y	-0.0367
R246D	-0.657
R219K	-0.381

Variant	8OG:A repair function score
V214G	-0.9
Q181D	-0.331
W235D	-0.452
C314E	-0.317
L134N	-0.686
R175I	-0.189
E382G	-0.0795
S270L	-0.0471
Y152P	-1.28
R281Q	-0.113
L158F	-0.384
G161S	-0.13
C347L	-0.18
E92R	-0.0994
A99D	-3
L234P	-1.02
G188I	-1.11
Q498N	-0.0368
F68R	-1.29
Q426L	-0.0573
Q323P	-0.0158

Variant	8OG:A repair function score
G155C	-0.117
G353N	-0.00787
D61C	-0.0189
I118C	0.0146
T122I	0.0511
V465D	-0.864
R283I	-0.0881
S270T	-0.0207
R154H	-0.851
C272W	-1.09
E92G	-0.183
F250S	-0.385
L184R	-1.2
P244E	-0.105
A115M	-0.164
T191L	-0.585
E168Y	-0.173
S52N	-0.0834
E90V	0.0003
Q271A	0.0211
Y190Q	-0.567

Variant	8OG:A repair function score
C272D	-1.28
Q144Y	-0.286
Y151R	-0.389
S298F	-0.0178
A334C	-0.0888
S296R	0.0309
R42L	-0.0705
R219H	-0.593
Q113D	-0.327
K333W	-0.0431
L387D	0.259
N307M	-0.145
Q159W	0.287
M93R	0.00556
S480C	-0.0352
R389F	-0.357
S335Q	-0.044
N366E	0.176
L360D	-1.19
C304M	-0.303
